The values that follow come from patent publication US20230279107A1 (ZHEJIANG RUIJIAMEI BIOTECH, published 2023).

The target in the assay is T1, CD19 expressed on Hela cells (stable cell line Hela-CD19) (human, UniProt P15391 20-556).
T1 sequence (looked up): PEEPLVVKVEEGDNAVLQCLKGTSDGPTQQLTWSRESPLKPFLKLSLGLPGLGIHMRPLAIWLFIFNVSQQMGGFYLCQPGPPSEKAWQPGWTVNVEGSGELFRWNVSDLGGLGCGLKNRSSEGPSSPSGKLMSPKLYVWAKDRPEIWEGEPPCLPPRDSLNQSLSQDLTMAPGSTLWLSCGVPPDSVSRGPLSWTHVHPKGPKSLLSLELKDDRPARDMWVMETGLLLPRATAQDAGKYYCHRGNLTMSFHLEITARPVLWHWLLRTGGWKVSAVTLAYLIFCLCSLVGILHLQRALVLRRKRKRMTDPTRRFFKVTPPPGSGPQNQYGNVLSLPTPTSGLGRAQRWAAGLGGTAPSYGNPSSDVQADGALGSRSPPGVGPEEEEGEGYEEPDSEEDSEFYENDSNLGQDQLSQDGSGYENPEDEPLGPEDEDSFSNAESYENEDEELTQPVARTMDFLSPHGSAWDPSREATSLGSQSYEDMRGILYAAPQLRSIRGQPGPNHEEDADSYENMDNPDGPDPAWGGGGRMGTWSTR
Nature of the assay: cell-based or functional assay.

B1: Humanized CD19-4-1BB-CD3-CAR protein (CD8 leader sequence-CD19 scFv (VL-Linker-VH)-CD8 hinge-CD8 TM-41BB-CD3-zeta), expressed on DNT cells (other)
chain: DIQMTQSPSSLSASVGDRVTITCRASQDISKYLNWYQQKPGKAPKLLIYHTSRLHSGVPSRFSGSGSGTDFTLTISSLQPEDFATYYCQQGNTLPYTFGGGTKVEIKGSTSGSGKPGSGEGSTKGQVQLQESGPGLVKPSETLSLTCTVSGGSLPDYGVSWIRQPPGKGLEWIGVIWGSETTYYNSALKSRVTISVDTSKNQFSLKLSSVTAADTAVYYCAKHYYYGGSYAMDYWGQGTLVTVSSTTTPAPRPPTPAPTIASQPLSLRPEACRPAAGGAVHTRGLDFACDIYIWAPLAGTCGVLLLSLVITLYCKRGRKKLLYIFKQPFMRPVQTTQEEDGCSCRFPEEEEGGCELRVKFSRSADAPAYKQGQNQLYNELNLGRREEYDVLDKRRGRDPEMGGKPRRKNPQEGLYNELQKDKMAEAYSEIGMKGERRRGKGHDGLYQGLSTATKDTYDALHMQALPPR
Take B1: the “specific killing of Hela-CD19 by CAR19-DNT cells on day 8 of culture (RTCA, effector-target ratio 2:1, 18 h)” value is 98.5% and the “specific killing of Hela-CD19 by CAR19-DNT cells on day 13 of culture (RTCA, effector-target ratio 2:1, 18 h)” value was determined as 98.1%.
